B1: SNX8 (parent)
chain: VVLKLFLSFSGSDVQNKLKESAQC
B2: ZBED2 (parent)
chain: RAGHHPNQYATCRLCGRQVSRGPG

Variants of: B1
Assay: protein stability index of a GFP-peptide fusion (GPS, HEK-293T) (PSI 1-6); higher = more stable
Conditions: c terminus: a fixed tail appended
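Further: lentivirally expressed fusions sorted by FACS into six bins by GFP to DsRed ratio, PSI derived from sequencing read proportions per bin multiplied by bin number.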

Protein stability index: each site, then its substitutions
V1: A 1.96 | E 2.47 | F 2.81 | H 1.6 | I 3.61 | N 1.36 | P 1.85 | Q 4.24 | R 2.71 | S 3.54 | T 2.48 | W 1.04 | Y 2.69
V2: A 3.41 | C 3.14 | D 1.4 | E 1.39 | K 3.26 | L 2.09 | M 2.57 | N 1.11 | P 2.19 | S 2.79 | W 3.59 | Y 2.24
L3: A 2.34 | C 2.4 | D 2.44 | E 1.57 | F 3.59 | G 1.78 | H 3.17 | K 2.5 | N 2.21 | P 2.87 | Q 2.61 | S 1.66 | T 1.2 | V 3.77 | Y 1.94
K4: E 4.58 | F 2.27 | H 2.6 | N 2.76 | P 3.99 | Q 2.43 | S 2.38
L5: A 2.93 | C 2.91 | D 2.41 | E 1.79 | F 3.22 | G 1.55 | H 2.57 | I 2.62 | K 2.59 | P 1.83 | Q 2.61 | R 1.92 | S 1.1 | Y 1.69
F6: D 1.17 | E 1.31 | I 2.18 | K 3.48 | M 2.48 | N 3.24 | P 2.29 | S 3.13
L7: D 1.73 | E 2.56 | F 2.35 | G 1.43 | H 3.04 | K 1.84 | N 1.09 | P 2.34 | Q 1.63 | V 3.66
S8: A 1.77 | G 1.91 | L 2.45 | M 4.24 | P 5.05 | R 1.92 | W 2.64
F9: A 3 | E 1.11 | H 3.85 | I 3.38 | K 1.72 | N 1.66 | P 2.64 | Q 4.89 | R 2.42 | T 2.41 | V 3.52 | W 2.48 | Y 3.17
S10: A 1.79 | D 2.68 | K 2.22 | L 2.45 | M 1.38 | N 2.75 | P 1.78 | Q 2.18 | R 2.08 | T 4.41 | V 3.99 | W 3.92 | Y 2.26
G11: A 2.33 | C 1.74 | D 2.11 | E 3.17 | F 3.55 | H 2.62 | I 2.14 | L 3.09 | Q 1.77 | R 3.97 | S 2.41 | V 3.28 | Y 2.42
S12: A 2.2 | D 3.29 | H 1.9 | I 2.62 | K 3.15 | L 1.37 | M 1.72 | N 2.13 | P 3.58 | Q 3.23 | T 3.29 | W 3.39 | Y 4.07
D13: C 2.1 | F 2.07 | H 3.62 | Q 3.33 | T 2.28
V14: A 2.43 | D 2.3 | E 1.91 | H 1.59 | K 1.82 | N 1.99 | S 4.53 | T 2.53 | Y 2.62
Q15: C 4.88 | D 1.8 | F 3.49 | M 4.13 | N 2.9 | T 3.35 | Y 3.96
N16: A 2.02 | F 2.04 | G 1.35 | H 1.75 | I 2.64 | K 2.2 | Q 4.03 | R 2.84 | W 3.64
K17: A 1.72 | L 3.46 | T 3.29 | V 2.59 | W 4.7 | Y 3.54
L18: A 2.7 | C 3.48 | E 2.26 | F 2.86 | G 4.32 | I 2.58 | M 4.11 | Q 4.56 | R 1.5 | T 2.13 | W 1.93
K19: A 4.92 | F 2.79 | G 3.41 | I 2.23 | M 2.37 | N 2.76 | P 3.75 | Q 5.1 | R 2.25
E20: A 2.89 | C 3.61 | D 3.55 | F 3.18 | L 1.89 | M 2.13 | N 3.6 | Q 2.37 | S 3.97 | Y 3.73
S21: D 1.56 | F 1.88 | K 2.25 | M 2.03 | N 2.55 | V 2.46 | W 2.66 | Y 2.66
A22: C 2.05 | D 4.82 | E 3.99 | F 3.23 | G 3.13 | K 2.18 | M 3.48 | T 1.76 | W 3.87 | Y 1.93
Q23: A 3.04 | C 3.1 | D 2.27 | F 1.71 | I 3.23 | K 2.59 | L 3.31 | R 2.8 | S 1.46 | T 2.48 | Y 2.52
C24: D 1.9 | F 4.02 | H 2.17 | L 5.49 | N 2.99 | P 3.78 | S 3.35 | V 2.91 | W 1.84 | Y 3.1

Variants of: B2
Assay: as above
Conditions: c terminus: a fixed tail appended

Protein stability index: each site, then its substitutions
R1: C 3.55 | D 2.57 | E 2.53 | H 2.13 | I 2.13 | K 1.68 | L 1.78 | M 1.79 | N 2.85 | P 1.04 | Q 1.5 | S 1.86 | T 2.07 | V 1.33
A2: D 2.08 | E 2.33 | F 2.36 | G 2.1 | H 1.78 | I 2.15 | K 1.54 | L 2.19 | M 1.97 | N 2.11 | P 1.73 | Q 1.4 | S 2.04 | Y 2.04
G3: A 2.29 | C 4.01 | D 2.58 | E 2.06 | H 1.25 | I 1.55 | K 2.66 | L 2.27 | M 2.52 | Q 1.75 | R 2.09 | S 1.57 | T 2.19 | V 1.64 | W 3.31
H4: A 2.76 | C 1.84 | D 2.09 | E 2.16 | G 2.21 | I 3.21 | K 1.56 | L 1.78 | N 3.52 | R 1.12 | T 2.78 | V 2.31 | Y 1.24
H5: A 2.48 | C 1.93 | D 3.27 | E 3.69 | F 1.89 | G 1.68 | I 2.27 | K 2.51 | L 1.86 | M 2.41 | N 2.5 | Q 2.16 | T 1.37 | Y 2.37
P6: D 2.02 | F 1.33 | G 2.54 | H 2.31 | I 1.45 | N 1.72 | R 1.83 | S 1.72 | Y 1.02
N7: A 1.78 | E 2.52 | F 1.08 | K 1.81 | L 2.67 | M 2.04 | P 1.56 | R 1.46 | S 1.88 | Y 2.9
Q8: D 3.31 | E 3.47

Source: the supplement of paper PMC10567573
